Experimental data: patent publication US20060110396A1

Target: Human CDw52 (human) (UniProt P31358)
Assay: cell-based or functional assay

- 51Cr release assay, lysis (apoptosis) of macrophage-cell line THP-1 after 18 h: 70%
- 51Cr release assay, lysis (apoptosis) of macrophage-cell line U-937 after 18 h: 55%
Substance: CAMPATH (antibody)
